Laboratory results from the nanobody polyreactivity screen of Harvey et al. (2022).

Experiment: yeast display, Sf9 membrane polyspecificity reagent, FACS + sequencing; frameworks hold sequencing errors
Method in brief: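 Genes from sorted yeast were amplified by colony PCR, read by MiSeq 2 × 250 sequencing and filtered on CDR length. These cells carried a synthetic nanobody library in Saccharomyces cerevisiae BJ5465 and were sorted by FACS into low and high (top ~1%) gates on anti-HA and streptavidin fluorescence. Polyreactivity is labelled according to the gate of origin.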

Row | Sequence | polyreactivity (PSR sort gate)
1 | QVQLVESGGGLVQAGGSLRLSCAPSGRTFYYYAMGWYRQAPGKERELVAAISRGSTYYADSVKGRFTISRDNAKNTVYLQMNSLKPEDTAVYYCAARYHNYWNRYIYDYWGQGTQVTVSS | high polyreactivity
2 | QVQLVESGGGLVQAGGSLRLSCAPSGSIFLHYAMGRYRQAPGKERDLVAAISRSGGRTYYADSVKGRFTISRDNAKNTVYLQMNSLKPEDTAVYYCAARVPRYRKDSVWAYYYWGQGTQVTVSS | high polyreactivity
3 | QVQLVESGGGLVQAGGSLRLSCAPSGSIFVHNAMGWYRQAPGKERELVAALDGGGGTYYADSVKGRFTISRDNAKNTVYLQMNSLKPEDTAVYYCAARYFHHYWGDLEVEFDYWGQGTQVTVSS | low polyreactivity
4 | QVQLVESGGGLVQAGGSLRLSCAPSGSILRYYAMGWYRQAPGKEREFVAAISWSGTSTYYADSVKGRFTISRDIAKNTVYLQMNSLKPEDTAVYYCAARTYYVPYYYWGQGTQVTVSS | high polyreactivity
5 | QVQLVESGGGLVQAGGSLRLSCAPSGSTFAYYAMGWYRQAPGKEREFVAAISTRGGSTYYADSVKGRFTISRDNAKNTVYFQMNSLKPEDTAVYYCAAGYFIYSWRIRFDYLGQGTQVTVSS | high polyreactivity
6 | QVQLVESGGGLVQAGGSLRLSCAPSGSTFDIYAMGWYRQAPGKERELVARISSGGGRTYYADSVKGRFTISRDNAKNTVYLQMNSLKPEDTAVYYCARDNEPDYYSYPYDYWGQGTQVTVSS | low polyreactivity
7 | QVQLVESGGGLVQAGGSLRLSCAPSGSTFNFNAMGWYRQAPGKERELVAAISKSGTRTYYADSVKGRFTISRDNAKNTVYLQMNSLKPEDTAVYYCAAPAISSYDHGYWGQGTQVTVSS | high polyreactivity
8 | QVQLVESGGGLVQAGGSLRLSCAPSGSTFRLYAMGWYRQAPGKERELVAVISGSGGNTYDADSVKGRFTISRDNAKNTVELQMNSLKPEDTAVDYCAAYSYRDRDDYWGQGTQGTVSS | high polyreactivity
9 | QVQLVESGGGLVQAGGSLRLSCAPSGYIFDIYAMVWYRQAPGKERELVAGITRNGGSTYYADSVKGRFTISRDNAKNTVYLQMNSLKPEDTAVYYCAAGWITRSLYHKYYSWGQGTQVTVSS | high polyreactivity
10 | QVQLVESGGGLVQAGGSLRLSCAPSRYIFYPYAMGWYRQAPGKEREFVATISYRGGSTYYADSVKGRFTISRDNAKNTVYLQMNSLKPEDTAVYYCAAREPWYYGYGDYWGHGTQVTVSS | high polyreactivity
11 | QVQLVESGGGLVQAGGSLRLSCAPYGFTFSKYAMGWYRKAPGKERELVAAITYSGGTTYYADSVKGRFTISRDNAKNTVYLQMNSLKPEDTAVYYCAADTKRRSIRYDYWGQGTQVTVSS | high polyreactivity
12 | QVQLVESGGGLVQAGGSLRLSCAQSGFTKSTYTMGWYRQAPGKESELVAAIRRSGDSTYYGDSVKGRFTISRDHAKNTVYLQMKRLKPEDTAVYYSNAVRYRFERYDYWGQGTQVTVSS | high polyreactivity
13 | QVQLVESGGGLVQAGGSLRLSCASSGFIFRGYAMGWYRQAPGKERELVAVISRSGTSTYYADSVKGRFTISRDNAKITVYLQMNSLKPEDTAVYYCAKEVWPRYIRQAYLSGYESWGQGTQVTVSS | high polyreactivity
14 | QVQLVESGGGLVQAGGSLRLSCASSGFTFYKYVMGGYRQDPGKEREMVAASSRSGGSTYYADSVKGRFTISRDNAKNTVYLQMNSLIPEDTAVYSCAKDSCGAPEGPYDYWGQGTQVTVSS | high polyreactivity
15 | QVQLVESGGGLVQAGGSLRLSCASSGFTFYSYDMGWYRQAPGKERELVAAITWYGGSTYYADSVKGRFTISRDNAKNTVYLQMKSLKQEDTAVYYCAAELFPLQHFWVAYATRRYDYWGQCTQVTVSS | low polyreactivity
16 | QVQLVESGGGLVQAGGSLRLSCASSGFTLGYYTMGWYRQAPGKESELVAAIRSNGGSTYYADSVKGRFTISRDNAKNTVYLQMNSLKPEDTAVYYCAARRWRYVGTRYDYWGQGTQVTVSS | high polyreactivity
17 | QVQLVESGGGLVQAGGSLRLSCASSGGIFYSYDMGWYRQAPGKERELVAAITWIGGSTYYADSVKGRFTISRDNAKNTVYFQMNSLKPEDTAVYYCAAEILWGGYDYWGQGTQVSVSS | low polyreactivity
18 | QVQLVESGGGLVQAGGSLRLSCASSGGTFISYAMGWYRQAPGKERELVAAISRGGSSTYYADSVKGRFTISRDNAKNTVYLQMNSLKPEDTAVYYCNKAYHRRDSEFGYWGQGTQVTVSS | high polyreactivity
19 | QVQLVESGGGLVQAGGSLRLSCASSGIIFYAYAMGWYRQAPGKERELVAAINFNTGRTYYADSVKGRFTISRDNAKNTVYLQMNSLKPEDTAVYYCAKSSYRNSGERDYWGQGTQVTVSS | high polyreactivity
20 | QVQLVESGGGLVQAGGSLRLSCASSGITFWSYAMVWYRQAPGKERELVAAISRGGDSTYYADSVKGRFTISRDNAKNTVYLQMNSLKPEDTAVYDCAALRPREEYYWGHGTQVTVSS | high polyreactivity
21 | QVQLVESGGGLVQAGGSLRLSCASSGITLYGYAMGWYRQAPGKEREFVAAISRSGDRTYYADSVKGRFTISRDNAMNTVYLQMNSLKPEDTAVYYCNAWRYDYWGQGTQVTVSS | high polyreactivity
22 | QVQLVESGGGLVQAGGSLRLSCASSGLILAPNDMGWYRQAPGKERELVAAITFRGVRTYYADSVKGRFTISRDNAKNNVYLQLNSLKPEDTAVYYCAAAVSKHYPYNYWGQGTQVSVSS | high polyreactivity

Row | Sequence | polyreactivity (PSR sort gate)
23 | QVQLVESGGGLVQAGGSLRLSCASSGPIFAYNAIPGYRQAPGKERELVADISSGGNTYYADSVKGRFTISRDNAKNTVYLQMNSLKPEDTAVYYCAADIAWYTHDHRIFDYWGQGTQVTVSS | low polyreactivity
24 | QVQLVESGGGLVQAGGSLRLSCASSGRIFDQYAMGWYRQAPGKERELVAAISSDDGSTYYADSVKGRFTISRDNAKNTVYLQMNSLKPEDTAVYYCAADAWRYVDYDYWGQGTQVTVSS | low polyreactivity
25 | QVQLVESGGGLVQAGGSLRLSCASSGRIFGSYAMGWYRQAPGKERELVAAISWRGTSTYYADSVKGRFTISRDNAKNTVYLQMNSLKPEDTAVYYCAARGLWPYDYWGQGTQVTVSS | low polyreactivity
26 | QVQLVESGGGLVQAGGSLRLSCASSGRIFLTNAMGWYRQAPGKERELVAAITSGGSTYYADSVKGRFTISRDNAKNTVFLQMNSLKPEDTAVYYCIADTDRYWPYEYDYWGQGTQVTVSS | low polyreactivity
27 | QVQLVESGGGLVQAGGSLRLSCASSGRIFNRYAMGWYRQAPGKERELVAAISSRGGSTYYADSVKGRFTISRDNAKNTVYLPMNSLKPEDTAVYYCAASAQKASYDWRYDYWGQGTQVTVSS | high polyreactivity
28 | QVQLVESGGGLVQAGGSLRLSCASSGRIFRNNVMGWYRQAHGKVRELVAAISATGTITRYADSVKGSFTISRDYSKNTVYLQMNSLKPEDTAVYYCAKDRGWWLGFIMDYWGQGSQVTVSS | low polyreactivity
29 | QVQLVESGGGLVQAGGSLRLSCASSGRIFRYYAMGWYRQAPGKERELVAAINWSGGSTYYADSVKGRFTISRDNAKNTVYLQMNSLNPEDTAVYYCYRRAYIRYDSSSLDYWGQGTQVTVSS | low polyreactivity
30 | QVQLVESGGGLVQAGGSLRLSCASSGRIFSGYAMGSYRQAPAKERELVATITSGGGTYYADSVKGRFTISRDNAKNTVYFQMNSLKPEDTAVYYCNAEKKGSFRKYNYWGQGTQVTVSS | low polyreactivity
31 | QVQLVESGGGLVQAGGSLRLSCASSGRIFSNYAMGWYRQAPGKERELVAAISWRTSNTYYADSVKGRFTISRDNAKYTVYLQMNSQKPEDTAVYYCAKYRRFRPYGSNGIYDYWGQGTQVSVSS | high polyreactivity
32 | QVQLVESGGGLVQAGGSLRLSCASSGRILYGSAMGWYRQAPGKERALVAAISWRSGSTYYADSVKGRFTISRDNAKNTVYLQMNSLKPEDTEVYYCAAGYGGYPGGYYWGQGTQVTVSS | high polyreactivity
33 | QVQLVESGGGLVQAGGSLRLSCASSGRNFYSYVMGWYRQAPGKERELVAAITRSGGTTYYADSVKGRITISRDNAKNTVYLEMYSLKPEDTAVYYCAAYVGGIRYYSWGQGTQVIVSS | high polyreactivity
34 | QVQLVESGGGLVQAGGSLRLSCASSGRTFEDYTMGWYRQAPGKVWEWVAAITGGGSTNYADSVKGRFTISRDNAKNTVYLQMYSQKPEDTAVYYCAAHYRYNWFRRYSYWGQGTQETVSS | high polyreactivity
35 | QVQLVESGGGLVQAGGSLRLSCASSGRTFFQYAMGWYRQAPGKERELVAAIRWSDSTYYADSVKGRFTISRDNAKNTVYLQMNSLKPEDTAVYYCAAPRVSQYSTKKYDYWGQGTQVTVSS | low polyreactivity
36 | QVQLVESGGGLVQAGGSLRLSCASSGRTFLRYTMGWYRQAPGKERELVAAISYRGGTTYYADSVKGRFTISRDNGKNTVYLEMNSMKADETGVYYCAARNVGRTGSDFWGQGTQVTVSS | low polyreactivity
37 | QVQLVESGGGLVQAGGSLRLSCASSGRTFRRYAMGWYRQAPGKERELVAAITWSGGSTYYADSVKGRFTFSRDYGKNTVYLQMNSLKPADTAEYYCAVSPLYSTSYYGLRKGYYWGQGTQVTVSS | high polyreactivity
38 | QVQLVESGGGLVQAGGSLRLSCASSGRTFRYYTMGWYRQAPGKEREFVAAISSTGGTYYADSVKGRFTISRDNAKNTVYFQMNSLIPVDTAVYYCAATFIKVVVNVQLYDYDYWGQGTQVTVSS | low polyreactivity
39 | QVQLVESGGGLVQAGGSLRLSCASSGRTFSGYAMGWYRQAPGKERELVASITWSGGSTYYADSVKGRFTISRDNAKNTVYLQMNSLKPDDTAVYYCARDSPRGRVGFNYWGQGTQVTVSS | low polyreactivity
40 | QVQLVESGGGLVQAGGSLRLSCASSGRTFSPYAMGWYRQAPGKERELVAAISSGGGNTYYADSVKGRITISRDNAKNTVYLQMNSLKPVDTAVYYCNAAQRRGGLGYWGLGTQVTVSS | high polyreactivity
41 | QVQLVESGGGLVQAGGSLRLSCASSGRTFYDNTMGWYRQAPGKERELVAGISYSGGSTYYADSVKGRFTISRDNAKNTVYLQMNSLKPEDTAVYYCNAELYFPYFDGKTRHGGYWGQGTQVTVSS | low polyreactivity
42 | QVQLVESGGGLVQAGGSLRLSCASSGRTFYIYAIGWYRQAAGKERELVASISRGGSTTYADSVKGRFTISRDNAKNTVYLQMNSLKPEDTAVYYCNARAYYDMNQWGQGTQVTVSS | low polyreactivity
43 | QVQLVESGGGLVQAGGSLRLSCASSGRTFYIYDMGWYRQAPGKERELVAAITSVGSTNYADSVKGRFTISRDNAMNTVYLQMNSLKPEDTAVYYCAAESTVGTSGDYDYWGQGTQVTVSS | low polyreactivity
